Assay results as given in patent publication US20110280881A1, “NOVEL ANTI-HSP90 MONOCLONAL ANTIBODY” (RIKEN, priority 2010, published 2011).

B1: IL-4: cytokine (protein, UniProt P05112 25-153, looked up)
Interleukin-4: HKCDITLQEIIKTLNSLTEQKTLCTELTVTDIFAASKNTTEKETFCRAATVLRQFYSHHEKDTRCLGATAQQFHRHKQLIRFLKRLDRNLWGLAGLNSCPVKEANQSTLENFLERLKTIMREKYSKCSS
B2: IL-10: cytokine (protein, UniProt P22301 19-178, looked up)
Interleukin-10: SPGQGTQSENSCTHFPGNLPNMLRDLRDAFSRVKTFFQMKDQLDNLLLKESLLEDFKGYLGCQALSEMIQFYLEEVMPQAENQDPDIKAHVNSLGENLKTLRLRLRRCHRFLPCENKSKAVEQVKNAFNKLQEKGIYKAMSEFDIFINYIEAYMTMKIRN
B3: IL-23: cytokine (protein, UniProt Q9NPF7 20-189; P29460 23-328, looked up)
Interleukin-23 subunit alpha: RAVPGGSSPAWTQCQQLSQKLCTLAWSAHPLVGHMDLREEGDEETTNDVPHIQCGDGCDPQGLRDNSQFCLQRIHQGLIFYEKLLGSDIFTGEPSLLPDSPVGQLHASLLGLSQLLQPEGHHWETQQIPSLSPSQPWQRLLLRFKILRSLQAFVAVAARVFAHGAATLSP
Interleukin-12 subunit beta: IWELKKDVYVVELDWYPDAPGEMVVLTCDTPEEDGITWTLDQSSEVLGSGKTLTIQVKEFGDAGQYTCHKGGEVLSHSLLLLHKKEDGIWSTDILKDQKEPKNKTFLRCEAKNYSGRFTCWWLTTISTDLTFSVKSSRGSSDPQGVTCGAATLSAERVRGDNKEYEYSVECQEDSACPAAEESLPIEVMVDAVHKLKYENYTSSFFIRDIIKPDPPKNLQLKPLKNSRQVEVSWEYPDTWSTPHSYFSLTFCVQVQGKSKREKKDRVFTDKTSATVICRKNASISVRAQDRYYSSSWSEWASVPCS

system: DC2.4 cells and mouse GM-CSF-dependent BMDC; assay: Influence of cytokines on expression of cell surface HSP90 (FACS with 6H8); format: cell-based; conditions: BMDC, cytokines 100 ng/ml or 10 ng/ml
Procedure: In view of the possibility that cytokines are variation factors for the expression of cell surface HSP90, the influences of various cytokines on the expression of cell surface HSP90 were examined as described below.
The solid bars indicate the MFI for BMDC incubated in the presence of high concentrations of IFNs (as in FIG. 5B) or other cytokines (100 ng/ml); the grey bars indicate the MFI for BMDC incubated in the presence of low concentrations of IFNs (as in FIG. 5B) or other cytokines (10 ng/ml). The open bars indicate the MFI for BMDC incubated in the absence of the cytokines as negative controls.

Molecule | MFI of cell surface HSP90 after cytokine treatment versus negative control
B1 | no significant difference from the negative control
B2 | no significant difference from the negative control
B3 | no significant difference from the negative control
